Reference: patent US20140378663A1
Each block holds one substance with its values, some of them ahead of it.

Assays:
[1] = target: FcγRI (R&D system) (human) (UniProt P12314); test: ELISA, 293-F supernatant, vs R603 IgG-WT
[2] = target: FcγRIIaR131 (R&D system) (human) (UniProt P12318); test: ELISA, 293-F supernatant, vs R603 IgG-WT
[3] = target: FcγRIIb (R&D system) (human) (UniProt P31994); test: ELISA, 293-F supernatant, vs R603 IgG-WT
[4] = target: FcRn-p3 (fusion protein of β2 microglobulin chain and FcRn α-chain fused to bacteriophage protein p3 and CVDE protein) (UniProt P61769); test: ELISA, 293-F supernatant, vs R603 IgG-WT
[5] = target: C1q complement (Calbiochem) (UniProt P02745); test: ELISA, 293-F supernatant, vs R603 IgG-WT
[6] = target: FcγRIIIaV158 (R&D system) (human) (UniProt P08637); test: ELISA, 293-F supernatant, vs R603 IgG-WT
[7] = target: FcγRI (R&D system) (human) (UniProt P12314); test: ELISA, purified IgG from YB2/0, vs R603 IgG-WT
[8] = target: FcγRIIaR131 (R&D system) (human) (UniProt P12318); test: ELISA, purified IgG from YB2/0, vs R603 IgG-WT
[9] = target: FcγRIIb (R&D system) (human) (UniProt P31994); test: ELISA, purified IgG from YB2/0, vs R603 IgG-WT
[10] = target: FcRn-p3 (fusion protein of β2 microglobulin chain and FcRn α-chain fused to bacteriophage protein p3 and CVDE protein) (UniProt P61769); test: ELISA, purified IgG from YB2/0, vs R603 IgG-WT
[11] = target: FcγRIIIaF158 (PX Therapeutics, His-tagged) (human) (UniProt P08637); test: ELISA, purified IgG from YB2/0, vs R603 IgG-WT
[12] = target: FcγRIIIaV158 (R&D system) (human) (UniProt P08637); test: ELISA, purified IgG from YB2/0, vs R603 IgG-WT
[13] = target: FcγRIIaH131 (PX Therapeutics, His-tagged) (human) (UniProt P12318); test: ELISA, purified IgG from YB2/0, vs R603 IgG-WT
[14] = target: Recombinant soluble human FcRn (human) (UniProt P55899); test: SPR (BIAcore X100), FcRn immobilised, pH 6.0
[15] = target: Recombinant soluble human FcRn (human) (UniProt P55899); test: SPR, FcRn immobilised, pH 6.0; reference R593
[16] = target: FcγRI (R&D system) (human) (UniProt P12314); test: ELISA, purified IgG from YB2/0, vs R593 IgG-WT
[17] = target: FcγRIIaR131 (R&D system) (human) (UniProt P12318); test: ELISA, purified IgG from YB2/0, vs R593 IgG-WT
[18] = target: FcγRIIb (R&D system) (human) (UniProt P31994); test: ELISA, purified IgG from YB2/0, vs R593 IgG-WT
[19] = target: FcRn-p3 (fusion protein of β2 microglobulin chain and FcRn α-chain fused to bacteriophage protein p3 and CVDE protein) (UniProt P61769); test: ELISA, purified IgG from YB2/0, vs R593 IgG-WT
[20] = target: FcγRIIIaF158 (PX Therapeutics, His-tagged) (human) (UniProt P08637); test: ELISA, purified IgG from YB2/0, vs R593 IgG-WT
[21] = target: FcγRIIIaV158 (R&D system) (human) (UniProt P08637); test: ELISA, purified IgG from YB2/0, vs R593 IgG-WT
[22] = target: FcγRIIaH131 (PX Therapeutics, His-tagged) (human) (UniProt P12318); test: ELISA, purified IgG from YB2/0, vs R593 IgG-WT
[23] = target: RhD antigen on RhD+ red blood cells (UniProt Q02161); test: flow cytometry on RhD+ red blood cells
Fcγ receptors = test: cell-based or functional assay
[24] = target: FcγRI (R&D system) (human) (UniProt P12314); test: ELISA, purified IgG from YB2/0, vs parent R603-256N/378V/383N/434Y
[25] = target: FcγRIIaR131 (R&D system) (human) (UniProt P12318); test: as above
[26] = target: FcγRIIb (R&D system) (human) (UniProt P31994); test: as above
[27] = target: FcRn-p3 (fusion protein of β2 microglobulin chain and FcRn α-chain fused to bacteriophage protein p3 and CVDE protein) (UniProt P61769); test: as above
[28] = target: FcγRIIaH131 (PX Therapeutics, His-tagged) (human) (UniProt P12318); test: as above
[29] = target: FcγRI (R&D system) (human) (UniProt P12314); test: ELISA, 293-F supernatant, vs parent 256N/378V/383N/434Y
[30] = target: FcγRIIaR131 (R&D system) (human) (UniProt P12318); test: as above
[31] = target: FcγRIIb (R&D system) (human) (UniProt P31994); test: as above
[32] = target: FcRn-p3 (fusion protein of β2 microglobulin chain and FcRn α-chain fused to bacteriophage protein p3 and CVDE protein) (UniProt P61769); test: as above
[33] = target: C1q complement (Calbiochem) (UniProt P02745); test: as above
[34] = target: Recombinant soluble human FcRn (human) (UniProt P55899); test: SPR, FcRn immobilised, pH 6.0; reference R603
[35] = target: T1, CD20 antigen on Raji lymphoblastoid B cells (UniProt P11836); test: flow cytometry on Raji cells
T1 sequence (looked up): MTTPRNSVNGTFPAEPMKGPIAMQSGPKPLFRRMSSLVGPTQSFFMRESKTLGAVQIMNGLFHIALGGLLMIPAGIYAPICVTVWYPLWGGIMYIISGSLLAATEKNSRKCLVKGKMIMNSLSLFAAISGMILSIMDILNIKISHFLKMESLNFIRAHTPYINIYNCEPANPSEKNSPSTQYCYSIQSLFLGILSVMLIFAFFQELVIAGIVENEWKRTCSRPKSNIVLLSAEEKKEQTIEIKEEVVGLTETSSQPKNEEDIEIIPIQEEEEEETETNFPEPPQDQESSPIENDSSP

[36] = target: C1q complement (Calbiochem) (UniProt P02745); test: cell-based or functional assay

FcγRI (R&D system) (human), sequence (P12314 16-288 limits assumed): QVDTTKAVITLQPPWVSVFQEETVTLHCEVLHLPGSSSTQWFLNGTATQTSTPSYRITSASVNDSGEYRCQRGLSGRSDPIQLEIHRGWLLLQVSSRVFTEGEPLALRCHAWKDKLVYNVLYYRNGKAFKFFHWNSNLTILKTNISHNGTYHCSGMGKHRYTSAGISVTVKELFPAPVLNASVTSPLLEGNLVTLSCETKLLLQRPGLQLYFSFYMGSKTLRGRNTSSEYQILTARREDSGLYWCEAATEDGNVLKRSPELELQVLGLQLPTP
FcγRIIaR131 (R&D system) (human), sequence (P12318 36-218 H167R limits assumed): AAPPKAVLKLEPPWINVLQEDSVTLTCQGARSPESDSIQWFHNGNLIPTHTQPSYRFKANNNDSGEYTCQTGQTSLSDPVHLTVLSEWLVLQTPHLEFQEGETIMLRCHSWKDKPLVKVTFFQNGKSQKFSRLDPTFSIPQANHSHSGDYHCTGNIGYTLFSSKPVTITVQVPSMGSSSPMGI
C1q complement (Calbiochem), sequence (P02745 23-245, chain 1 of 3): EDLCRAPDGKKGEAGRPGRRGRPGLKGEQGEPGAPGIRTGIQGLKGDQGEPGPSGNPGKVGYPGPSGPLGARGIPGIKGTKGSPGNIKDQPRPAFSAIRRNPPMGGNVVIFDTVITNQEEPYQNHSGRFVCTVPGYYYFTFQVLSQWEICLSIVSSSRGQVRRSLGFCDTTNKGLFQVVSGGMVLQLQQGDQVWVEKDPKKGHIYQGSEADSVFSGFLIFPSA
C1q complement (Calbiochem), sequence (P02746 28-253, chain 2 of 3, further chain): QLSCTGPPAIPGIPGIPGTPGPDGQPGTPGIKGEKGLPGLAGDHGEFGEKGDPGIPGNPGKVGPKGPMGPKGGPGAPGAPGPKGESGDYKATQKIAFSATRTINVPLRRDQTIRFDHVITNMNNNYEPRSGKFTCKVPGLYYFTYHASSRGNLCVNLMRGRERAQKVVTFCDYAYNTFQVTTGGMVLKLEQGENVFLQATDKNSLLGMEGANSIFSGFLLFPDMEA
C1q complement (Calbiochem), sequence (P02747 29-245, chain 3 of 3, further chain): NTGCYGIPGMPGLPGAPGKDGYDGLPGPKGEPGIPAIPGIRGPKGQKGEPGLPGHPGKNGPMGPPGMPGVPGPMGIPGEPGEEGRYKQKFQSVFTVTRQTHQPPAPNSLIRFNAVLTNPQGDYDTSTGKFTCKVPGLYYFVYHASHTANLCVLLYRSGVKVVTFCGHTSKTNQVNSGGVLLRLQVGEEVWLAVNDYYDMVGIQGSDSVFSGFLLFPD
FcγRIIaH131 (PX Therapeutics, His-tagged) (human), sequence (P12318 34-217 limits assumed): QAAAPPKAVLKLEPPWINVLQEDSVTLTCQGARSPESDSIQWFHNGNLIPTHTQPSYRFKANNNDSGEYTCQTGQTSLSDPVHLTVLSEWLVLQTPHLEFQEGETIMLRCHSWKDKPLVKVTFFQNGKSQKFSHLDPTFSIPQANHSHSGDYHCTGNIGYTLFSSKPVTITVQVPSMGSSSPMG
FcγRIIb (R&D system) (human), sequence (P31994 46-217 limits assumed): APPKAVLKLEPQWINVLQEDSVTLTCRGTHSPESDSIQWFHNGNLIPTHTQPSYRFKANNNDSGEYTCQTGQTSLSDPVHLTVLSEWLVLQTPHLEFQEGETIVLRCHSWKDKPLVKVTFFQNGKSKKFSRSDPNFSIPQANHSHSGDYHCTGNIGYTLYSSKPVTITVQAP
FcγRIIIaV158 (R&D system) (human), sequence (P08637 17-208 F176V limits assumed): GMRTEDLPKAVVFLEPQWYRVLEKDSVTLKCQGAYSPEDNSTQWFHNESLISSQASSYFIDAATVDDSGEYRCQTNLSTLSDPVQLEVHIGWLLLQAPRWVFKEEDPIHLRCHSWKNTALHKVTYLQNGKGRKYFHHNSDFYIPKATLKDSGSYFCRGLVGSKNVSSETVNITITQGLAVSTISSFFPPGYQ
FcγRIIIaF158 (PX Therapeutics, His-tagged) (human), sequence (P08637 17-208 limits assumed): as the sequence (P08637 17-208 F176V limits assumed) above, with V160F counted along it
RhD antigen on RhD+ red blood cells, sequence (Q02161 2-417 limits assumed): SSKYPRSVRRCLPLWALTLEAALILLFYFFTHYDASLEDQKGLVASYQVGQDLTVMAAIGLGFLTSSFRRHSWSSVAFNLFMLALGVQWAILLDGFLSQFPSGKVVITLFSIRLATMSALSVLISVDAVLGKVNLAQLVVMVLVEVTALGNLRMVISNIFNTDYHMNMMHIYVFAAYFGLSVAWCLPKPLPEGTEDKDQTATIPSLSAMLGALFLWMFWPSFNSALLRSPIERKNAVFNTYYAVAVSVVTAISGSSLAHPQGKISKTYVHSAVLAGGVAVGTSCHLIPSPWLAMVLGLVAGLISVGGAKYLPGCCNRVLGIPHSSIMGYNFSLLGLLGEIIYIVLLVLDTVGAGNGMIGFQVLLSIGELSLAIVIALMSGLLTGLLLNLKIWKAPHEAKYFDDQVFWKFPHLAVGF

Substance: R603 anti-CD20 IgG1 variant 294Del/397M (antibody)
- Ratio/IgG-WT [1]: 0.68
- Ratio/IgG-WT [2]: 0.03
- Ratio/IgG-WT [3]: 0.04
- Ratio/IgG-WT [4]: 0.84
- Ratio/IgG-WT [5]: 0.25

Substance: R603 anti-CD20 IgG1 variant 230S/294Del/315D/428L/434Y (antibody)
- Ratio/IgG-WT [1]: 0.25
- Ratio/IgG-WT [2]: 0.01
- Ratio/IgG-WT [3]: 0.02
- Ratio/IgG-WT [4]: 3.86
- Ratio/IgG-WT [5]: 0.35

Substance: R603 anti-CD20 IgG1 variant 294Del/378V (antibody)
- Ratio/IgG-WT [1]: 0.33
- Ratio/IgG-WT [2]: 0.06
- Ratio/IgG-WT [3]: 0.11
- Ratio/IgG-WT [4]: 1.46

Substance: R603 anti-CD20 IgG1 variant 294Del/307A (antibody)
- Ratio/IgG-WT [1]: 0.35
- Ratio/IgG-WT [2]: 0.01
- Ratio/IgG-WT [3]: 0.2
- Ratio/IgG-WT [4]: 1.94
- Ratio/IgG-WT [5]: 0.46

Substance: R593 anti-RhD+ IgG1 variant 256N/378V/383N/434Y (antibody)
- Kd [14]: 42 nM
- Ratio WT/IgG (KD) [15]: 4.52
- Ratio/IgG-WT [16]: 2.19
- Ratio/IgG-WT [17]: 1.08
- Ratio/IgG-WT [18]: 1.55
- Ratio/IgG-WT [19]: 7.49
- Ratio/IgG-WT [20]: 0.92
- Ratio/IgG-WT [21]: 0.98
- Ratio/IgG-WT [22]: 1.01
- Ag binding MFI (Arbitrary Unit) [23]: 49.6
- ADCC EC50 (ng/ml), lysis of RhD+ red cells (Fcγ receptors): 11.1 ng/mL
- ADCC Max. Lysis (%) (Fcγ receptors): 93%

Substance: R603 anti-CD20 IgG1 variant 294Del/315D (antibody)
- Ratio/IgG-WT [1]: 0.4
- Ratio/IgG-WT [3]: 0.21
- Ratio/IgG-WT [4]: 1.16
- Ratio/IgG-WT [5]: 0.29

Second part, the substance after the results:

- Ratio/IgG-WT [1]: 0.93
- Ratio/IgG-WT [2]: 2.59
- Ratio/IgG-WT [3]: 4.77
- Ratio/IgG-WT [4]: 4.63
- Ratio/IgG-WT [5]: 3.65
- Ratio/IgG-WT [6]: 2.09
- Ratio/IgG-WT [7]: 2.19
- Ratio/IgG-WT [8]: 1.4
- Ratio/IgG-WT [9]: 1.83
- Ratio/IgG-WT [10]: 8.51
- Ratio/IgG-WT [11]: 1.25
- Ratio/IgG-WT [12]: 1.22
- Ratio/IgG-WT [13]: 0.93
Substance: R603 anti-CD20 IgG1 variant 256N/378V/383N/434Y (antibody)

- Kd [14]: 20.4 nM
- Ratio WT/IgG (KD) [15]: 9.31
- Ratio/IgG-WT [16]: 1.08
- Ratio/IgG-WT [17]: 1.05
- Ratio/IgG-WT [18]: 1.41
- Ratio/IgG-WT [19]: 7.93
- Ratio/IgG-WT [20]: 0.94
- Ratio/IgG-WT [21]: 0.95
- Ratio/IgG-WT [22]: 0.94
- Ag binding MFI (Arbitrary Unit) [23]: 47.2
- ADCC EC50 (ng/ml), lysis of RhD+ red cells (Fcγ receptors): 14.2 ng/mL
- ADCC Max. Lysis (%) (Fcγ receptors): 89%
Substance: R593 anti-RhD+ IgG1 variant 259I/315D/434Y (antibody)

- Ratio/IgG-WT [1]: 0.06
- Ratio/IgG-WT [2]: 0.02
- Ratio/IgG-WT [3]: 0.06
- Ratio/IgG-WT [4]: 0.66
- Ratio/IgG-WT [5]: 0.21
Substance: R603 anti-CD20 IgG1 variant 294Del/302A (antibody)

- ratio to the IgG1 without 294Del [24]: 0.07
- ratio to the IgG1 without 294Del [25]: 0.06
- ratio to the IgG1 without 294Del [26]: 0.25
- ratio to the IgG1 without 294Del [27]: 1.04
- ratio to the IgG1 without 294Del [28]: 0.09
- ratio to the IgG1 without 294Del [29]: 0.66
- ratio to the IgG1 without 294Del [30]: 0.004
- ratio to the IgG1 without 294Del [31]: 0.002
- ratio to the IgG1 without 294Del [32]: 0.75
- ratio to the IgG1 without 294Del [33]: 0.04
Substance: R603 anti-CD20 IgG1 variant 256N/294Del/378V/383N/434Y (antibody)

- Ratio/IgG-WT [1]: 0.82
- Ratio/IgG-WT [2]: 1.23
- Ratio/IgG-WT [3]: 1.07
- Ratio/IgG-WT [4]: 4.32
- Ratio/IgG-WT [5]: 1.26
- Ratio/IgG-WT [6]: 1.08
- Kd [14]: 26.9 nM
- Ratio WT/IgG (KD) [34]: 3.68
- Ag binding MFI (Arbitrary Unit) [35]: 137
- Ratio/IgG-WT [7]: 1.12
- Ratio/IgG-WT [8]: 1.11
- Ratio/IgG-WT [9]: 1.54
- Ratio/IgG-WT [10]: 6.93
- Ratio/IgG-WT [11]: 1.11
- Ratio/IgG-WT [12]: 1.11
- Ratio/IgG-WT [13]: 0.99
- CDC EC50 [36]: 0.41 µg/mL
Substance: R603 anti-CD20 IgG1 variant 259I/315D/434Y (antibody)

- Kd [14]: 204 nM
- Ag binding MFI (Arbitrary Unit) [23]: 52.6
- ADCC EC50 (ng/ml), lysis of RhD+ red cells (Fcγ receptors): 75.9 ng/mL
- ADCC Max. Lysis (%) (Fcγ receptors): 5%
Substance: R593 anti-RhD+ IgG1 variant 294Del (antibody)

- Ratio/IgG-WT [1]: 0.49
- Ratio/IgG-WT [2]: 0.02
- Ratio/IgG-WT [3]: 0.05
- Ratio/IgG-WT [4]: 2.64
- Ratio/IgG-WT [5]: 0.25
Substance: R603 anti-CD20 IgG1 variant 294Del/434S (antibody)

- Kd [14]: 190 nM
- Ag binding MFI (Arbitrary Unit) [35]: 126
Substance: R603 anti-CD20 IgG1 variant 294Del (antibody)
